T1: 4H906-bN
T1 chain: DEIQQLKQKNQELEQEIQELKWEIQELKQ

T2: 4H918-bA
T2 chain: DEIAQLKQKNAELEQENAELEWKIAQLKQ

T3: 4H883-bA
T3 chain: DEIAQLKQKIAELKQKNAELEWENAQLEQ

T4: 4H568-bA
T4 chain: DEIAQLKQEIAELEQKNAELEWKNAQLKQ

T5: 4H462-bA
T5 chain: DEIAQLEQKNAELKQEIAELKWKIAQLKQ

T6: 4H797-bA
T6 chain: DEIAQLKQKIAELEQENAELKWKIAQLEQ

T7: 4H607-bA
T7 chain: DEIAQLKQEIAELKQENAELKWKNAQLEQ

T8: O6-bA
T8 chain: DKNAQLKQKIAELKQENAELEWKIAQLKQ

T9: 4H967-bA
T9 chain: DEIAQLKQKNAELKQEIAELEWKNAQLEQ

T10: 4H687-bA
T10 chain: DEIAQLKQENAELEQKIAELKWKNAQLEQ

T11: 4H72-bA
T11 chain: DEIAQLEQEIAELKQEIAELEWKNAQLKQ

T12: 4H570-bA
T12 chain: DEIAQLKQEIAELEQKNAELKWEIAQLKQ

T13: 4H953-bA
T13 chain: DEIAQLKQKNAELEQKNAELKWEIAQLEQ

T14: P8A
T14 chain: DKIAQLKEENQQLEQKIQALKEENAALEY

T15: P9A
T15 chain: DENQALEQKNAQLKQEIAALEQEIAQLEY

T16: 4H3277-bA
T16 chain: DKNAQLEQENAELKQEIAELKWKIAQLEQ

T17: 4H2717-bA
T17 chain: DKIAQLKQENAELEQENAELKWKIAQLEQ

T18: 4H477-bA
T18 chain: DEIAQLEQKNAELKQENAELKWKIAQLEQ

T19: 4H348-bA
T19 chain: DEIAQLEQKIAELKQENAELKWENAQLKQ

T20: 4H2839-bA
T20 chain: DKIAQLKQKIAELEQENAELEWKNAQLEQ

T21: 4H2915-bA
T21 chain: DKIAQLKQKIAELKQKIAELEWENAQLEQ

T22: 4H492-bA
T22 chain: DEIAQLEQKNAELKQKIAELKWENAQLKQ

T23: 4H741-bA
T23 chain: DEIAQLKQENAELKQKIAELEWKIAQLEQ

T24: 4H40-bA
T24 chain: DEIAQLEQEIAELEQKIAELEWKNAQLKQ

T25: 4H3057-bA
T25 chain: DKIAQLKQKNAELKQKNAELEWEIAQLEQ

T26: 4H319-bA
T26 chain: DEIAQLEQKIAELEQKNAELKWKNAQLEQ


Assays:
Experiment in all cases: two-hybrid library CCNG1;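 note: natural log of median RNA to DNA barcode read ratio; higher means stronger binding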
4H906-bN = target: T1, 4H906-bN
4H918-bA = target: T2, 4H918-bA
4H883-bA = target: T3, 4H883-bA
4H568-bA = target: T4, 4H568-bA
4H462-bA = target: T5, 4H462-bA
4H797-bA = target: T6, 4H797-bA
4H607-bA = target: T7, 4H607-bA
O6-bA = target: T8, O6-bA
4H967-bA = target: T9, 4H967-bA
4H687-bA = target: T10, 4H687-bA
4H72-bA = target: T11, 4H72-bA
4H570-bA = target: T12, 4H570-bA
4H953-bA = target: T13, 4H953-bA
P8A = target: T14, P8A
P9A = target: T15, P9A
4H3277-bA = target: T16, 4H3277-bA
4H2717-bA = target: T17, 4H2717-bA
4H477-bA = target: T18, 4H477-bA
4H348-bA = target: T19, 4H348-bA
4H2839-bA = target: T20, 4H2839-bA
4H2915-bA = target: T21, 4H2915-bA
4H492-bA = target: T22, 4H492-bA
4H741-bA = target: T23, 4H741-bA
4H40-bA = target: T24, 4H40-bA
4H3057-bA = target: T25, 4H3057-bA
4H319-bA = target: T26, 4H319-bA

| Binder | interaction score (4H3277-bA) | interaction score (4H477-bA) | interaction score (4H348-bA) | interaction score (4H2839-bA) | interaction score (4H2915-bA) | interaction score (4H492-bA) | interaction score (4H741-bA) | interaction score (4H40-bA) | interaction score (4H3057-bA) | also measured |
| --- | --- | --- | --- | --- | --- | --- | --- | --- | --- | --- |
| DEIAQLEQKNAELKQEIAELKWKIAQLKQ [4H462-bA] | – | – | – | – | – | – | – | – | – | interaction score (4H906-bN): 0.676; interaction score (4H918-bA): -1.06; interaction score (4H883-bA): -1.19; interaction score (4H568-bA): -0.962; interaction score (4H462-bA): 1.24; interaction score (4H797-bA): -0.251; interaction score (4H607-bA): -0.0392; interaction score (O6-bA): 1.7; interaction score (4H967-bA): -0.0789; interaction score (4H687-bA): 0.993; interaction score (4H72-bA): 0.312; interaction score (4H570-bA): -2.87; interaction score (4H953-bA): -0.872 |
| DKIAQLKEENQQLEQKIQALKEENAALEY [P8A] | – | – | – | – | – | – | – | – | – | interaction score (P8A): -1.27; interaction score (P9A): -1.56 |
| DKIAQLKQENAELEQENAELKWKIAQLEQ [4H2717-bA] | -0.874 | 0.776 | -1.06 | -0.857 | -0.721 | -1.39 | -1.48 | -1.55 | 1.23 | interaction score (4H2717-bA): 1.02 |
| DKIAQLKQKIAELEQENAELEWKNAQLEQ [4H2839-bA] | -0.969 | -0.768 | -0.533 | 0.104 | -0.223 | -0.582 | -0.816 | 1.35 | -0.0141 | interaction score (4H319-bA): 1.61 |

— paper PMC10397247
